Laboratory results as given in patent US11672826.
Like-named read-outs stand apart in the source and are kept apart here.

Experiments:
Test in all cases: cell-based or functional assay
[1] = target: IL2Rαβγ on CTLL2 cells
[2] = target: IL2Rβ and common γ chain on 32Dβ cells
[3] = target: TGFβ1 (R&D systems) (UniProt P01137)
[4] = target: TGFβ1 (R&D systems) (UniProt P01137); remark: listed apart in the source
[5] = target: IL2Rβ and common γ chain on 32Dβ cells; remark: listed apart in the source
[6] = target: IL2Rβ and common γ chain on 32Dβ cells; remark: listed apart in the source
[7] = target: IL-21R on B9 cells

Human recombinant TGFβRII/Fc, sequence (P37173 24-159): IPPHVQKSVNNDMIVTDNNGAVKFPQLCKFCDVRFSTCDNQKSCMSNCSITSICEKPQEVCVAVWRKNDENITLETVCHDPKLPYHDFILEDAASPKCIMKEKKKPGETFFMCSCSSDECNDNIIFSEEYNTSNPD
TGFβ1 (R&D systems), sequence (P01137 279-390 limits assumed): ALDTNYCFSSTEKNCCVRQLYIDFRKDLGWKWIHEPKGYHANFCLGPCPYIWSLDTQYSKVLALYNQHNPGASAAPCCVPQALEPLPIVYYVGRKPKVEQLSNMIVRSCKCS

Substance: recombinant IL-2 (from UniProt P60568 21-153) (ligand)
- EC50 of CTLL-2 cell proliferation (WST1) [1]: 548 pM
- EC50 of 32Dβ cell proliferation (WST1) [2]: 140 pM

Substance: Human recombinant TGFβRII/Fc (from UniProt P37173 24-159) (Fc fusion)
- IC50, TGFβ1 activity in HEK-Blue TGFβ reporter cells [3]: 559 pM
- IC50, TGFβ1 activity in HEK-Blue TGFβ reporter cells [4]: 461 pM

Substance: recombinant IL-15 (from UniProt P40933 49-162) (ligand)
- EC50 of 32Dβ cell proliferation (WST1) [5]: 16.6 pM
- EC50 of 32Dβ cell proliferation (WST1) [6]: 10.6 pM
- EC50 of CTLL2 cell proliferation (PrestoBlue) [1]: 4.95 pM
- EC50 of CTLL2 cell proliferation (WST1) [1]: 6.22 pM
- EC50 of 32Dβ cell proliferation (WST1) [2]: 1.6 pM

Substance: recombinant IL-21 (from UniProt Q9HBE4 32-162) (ligand)
- EC50 of B9 cell proliferation (WST1) [7]: 72.5 nM
